{
  "source": "patent US20240383982A1",
  "about": "(Genmab, published 2024)",
  "binders": {"B1": {"name": "IgG1-B7H4-C1-N52S-FEAR (antibody, V domains shown)", "VH": "QVQLQQWGAGLLKPSETLSLTCAVYGGSFSGYYWSWIRQPPGKGLEWIGEISHSGSTNYNPSLKSRVTISIDTSKNQFSLKLTSVTAADTAVFYCARGLFNWNFDSWGQGTLVTVSS", "VL": "DIQMTQSPSSLSASVGDRVTITCRASQGIRNDLGWYQQKPGKAPKRLIYGASSLQSGVPSRFSGSGSGTEFTLTISSLQPEDFATYYCLQHNSYPRTFGQGTTVEIKR", "notes": "Full length human IgG1 with L234F, L235E, D265A, K409R (FEAR) heavy chain constant region and kappa light chain; bivalent, monospecific; also called IgG1-B7H4-C1-052S-FEAR"}, "B2": {"name": "bsIgG1-huCD3-H101G-FEALxB7H4-C1-N52S-FEAR (bispecific antibody)", "heavy 1": "not shown", "light 1": "not shown", "heavy 2": "QVQLQQWGAGLLKPSETLSLTCAVYGGSFSGYYWSWIRQPPGKGLEWIGEISHSGSTNYNPSLKSRVTISIDTSKNQFSLKLTSVTAADTAVFYCARGLFNWNFDSWGQGTLVTVSSASTKGPSVFPLAPSSKSTSGGTAALGCLVKDYFPEPVTVSWNSGALTSGVHTFPAVLQSSGLYSLSSVVTVPSSSLGTQTYICNVNHKPSNTKVDKRVEPKSCDKTHTCPPCPAPEFEGGPSVFLFPPKPKDTLMISRTPEVTCVVVAVSHEDPEVKFNWYVDGVEVHNAKTKPREEQYNSTYRVVSVLTVLHQDWLNGKEYKCKVSNKALPAPIEKTISKAKGQPREPQVYTLPPSREEMTKNQVSLTCLVKGFYPSDIAVEWESNGQPENNYKTTPPVLDSDGSFFLYSRLTVDKSRWQQGNVFSCSVMHEALHNHYTQKSLSLSPGK", "light 2": "DIQMTQSPSSLSASVGDRVTITCRASQGIRNDLGWYQQKPGKAPKRLIYGASSLQSGVPSRFSGSGSGTEFTLTISSLQPEDFATYYCLQHNSYPRTFGQGTTVEIKRTVAAPSVFIFPPSDEQLKSGTASVVCLLNNFYPREAKVQWKVDNALQSGNSQESVTEQDSKDSTYSLSSTLTLSKADYEKHKVYACEVTHQGLSSPVTKSFNRGEC", "notes": "also called bslgG1-huCD3-H101G-FEALxB7H4-C1-N52S-FEAR; BslgG1-huCD3-H101G-FEALxB7H4-C1-N52S-FEAR"}, "B3": {"name": "IgG1-B7H4-C5-FEAR (antibody, V domains shown)", "VH": "QLQLQESGPGLVKPSETLSLTCTVSGGSIKSGSYYWGWIRQPPGKGLEWIGNIYYSGSTYYNPSLRSRVTISVDTSKNQFSLKLSSVTAADTAVYYCAREGSYPNQFDPWGQGTLVTVSS", "VL": "EIVMTQSPATLSVSPGERATLSCRASQSVSSNLAWYQQKPGQAPRLLIYGASTRATGIPARFSGSGSGTEFTLTISSLQSEDFAVYYCQQYHSFPFTFGGGTKVEIKR", "notes": "Full length IgG1 FEAR, kappa; variable domains from US20190085080A1"}},
  "key": {"[1]": {"molecular_target": "T1, cynomolgus monkey (Macaca fascicularis) B7H4 transcript 1, full length, on HEK-293F cells (cynomolgus monkey, UniProt Q7Z7D3 25-282 (human entry))", "T1 construct": "Uniprot A0A2K5U6P5; also called cynomolgus monkey B7H4; cynomolgus B7H4", "T1 chain": "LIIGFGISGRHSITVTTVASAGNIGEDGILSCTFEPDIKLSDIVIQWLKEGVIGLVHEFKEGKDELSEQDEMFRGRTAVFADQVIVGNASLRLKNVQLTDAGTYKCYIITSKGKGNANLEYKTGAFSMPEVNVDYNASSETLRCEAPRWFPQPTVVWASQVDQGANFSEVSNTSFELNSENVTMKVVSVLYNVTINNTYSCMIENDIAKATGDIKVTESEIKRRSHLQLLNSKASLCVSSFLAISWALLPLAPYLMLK", "assay": "flow cytometry, HEK-293F cells transfected with cynomolgus monkey B7H4 [panel Cynomolgus monkey B7H4]", "description": "(§1) Cells (3×10⁴ cells/well) were incubated in polystyrene 96-well round-bottom plates (Greiner bio-one, cat. no. 650180) with serial dilutions of antibodies (ranging from 0.000458 to 30 μg/mL in 4-fold dilution steps) in 100 μL PBS/0.1% BSA/0.02% azide (staining buffer) at 4° C. for 30 min. Experiments were performed in technical duplicate. After washing twice in staining buffer, cells were incubated in 50 μL secondary antibody at 4° C. for 30 min. As a secondary antibody, R-Phycoerythrin (PE)-conjugated goat-anti-human IgG F(ab′)₂ (1:500 in FACS buffer; Jackson ImmunoResearch Laboratories, Inc., West Grove, PA, cat. no. 109-116-098), was used. Cells were washed twice in staining buffer, re-suspended in 30 μL FACS buffer containing Topro-3 (1:10,000 dilution) and analyzed on an iQue Screener (Intellicyt Corporation, USA). Binding curves were analyzed using non-linear regression (sigmoidal dose-response with variable slope) using GraphPad Prism V7.02 software (GraphPad Software, San Diego, CA, USA)."}, "[2]": {"molecular_target": "T2, dog (Canis familiaris) B7H4, full length, on HEK-293F cells (dog, UniProt Q7Z7D3 25-282 (human entry))", "T2 construct": "Uniprot F1P8R9; also called dog B7H4", "T2 chain": "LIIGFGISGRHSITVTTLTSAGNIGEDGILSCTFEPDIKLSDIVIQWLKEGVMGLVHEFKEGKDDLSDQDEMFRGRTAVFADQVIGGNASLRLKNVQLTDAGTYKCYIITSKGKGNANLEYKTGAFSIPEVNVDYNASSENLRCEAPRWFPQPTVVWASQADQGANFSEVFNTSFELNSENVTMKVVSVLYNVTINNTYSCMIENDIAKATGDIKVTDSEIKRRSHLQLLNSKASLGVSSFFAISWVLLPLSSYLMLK", "assay": "flow cytometry, HEK-293F cells transiently transfected with dog B7H4, PE anti-human IgG F(ab')2 [panel Dog B7H4]", "description": "as §1"}, "[3]": {"molecular_target": "T3, human B7H4, full length, on cells (human, UniProt Q7Z7D3 25-282)", "T3 construct": "Uniprot Q7Z7D3; Used for transfected HEK cells and for the B7H4-expressing human tumor cell lines (endogenous B7H4); also called VTCN1", "T3 sequence": "T1 chain with I53L, L242F, A252S", "assay": "flow cytometry on MDA-MB-468 tumor cells [MDA-MB-468 left panel]", "description": "as §1\nBinding was analyzed by flow cytometry as described above."}, "[4]": {"molecular_target": "T3, human B7H4, full length, on cells", "assay": "flow cytometry, HEK-293F cells transiently transfected with human B7H4, PE anti-human IgG F(ab')2 [panel Human B7H4]", "description": "as §1"}, "[5]": {"molecular_target": "T4, rat (Rattus norvegicus) B7H4, full length, on HEK-293F cells (rat, UniProt Q501W4 25-257)", "T4 construct": "Uniprot Q501W4; also called rat B7H4", "T4 sequence": "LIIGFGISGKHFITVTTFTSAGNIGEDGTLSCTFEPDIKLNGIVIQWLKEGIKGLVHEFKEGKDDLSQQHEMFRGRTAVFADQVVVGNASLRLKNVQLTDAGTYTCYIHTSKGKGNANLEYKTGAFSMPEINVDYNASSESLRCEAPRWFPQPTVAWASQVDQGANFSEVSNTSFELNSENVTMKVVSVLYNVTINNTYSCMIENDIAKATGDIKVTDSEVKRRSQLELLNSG", "assay": "flow cytometry, HEK-293F cells transiently transfected with rat B7H4, PE anti-human IgG F(ab')2 [panel Rat B7H4]", "description": "as §1"}, "[6]": {"molecular_target": "T5, rabbit (Oryctolagus cuniculus) B7H4, full length, on HEK-293F cells (rabbit, UniProt Q7Z7D3 25-282 (human entry))", "T5 construct": "Uniprot G1TQE8; also called rabbit B7H4", "T5 chain": "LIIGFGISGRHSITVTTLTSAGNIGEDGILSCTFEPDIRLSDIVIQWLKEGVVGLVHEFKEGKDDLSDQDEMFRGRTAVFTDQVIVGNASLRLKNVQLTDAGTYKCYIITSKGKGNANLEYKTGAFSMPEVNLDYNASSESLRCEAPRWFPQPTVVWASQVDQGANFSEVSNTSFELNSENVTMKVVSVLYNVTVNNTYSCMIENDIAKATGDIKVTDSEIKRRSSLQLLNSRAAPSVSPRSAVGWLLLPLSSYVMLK", "assay": "flow cytometry, HEK-293F cells transiently transfected with rabbit B7H4, PE anti-human IgG F(ab')2 [panel Rabbit B7H4]", "description": "as §1"}, "[7]": {"molecular_target": "T1, cynomolgus monkey (Macaca fascicularis) …", "assay": "flow cytometry, HEK-293F cells transiently transfected with cynomolgus monkey B7H4, PE anti-human IgG F(ab')2 [panel Cynomolgus monkey B7H4]", "description": "as §1"}},
  "note": "Positions count from the first letter of the chain named. Numbers in names are those of the source.",
  "data": [
    {"binder": "B1", "values": [
      {"measurement": "EC50 (read off the curve)", "setting": "[1]", "value": "~0.1", "unit": "µg/mL"},
      {"measurement": "EC50 (read off the curve)", "setting": "[2]", "value": "~0.3", "unit": "µg/mL"},
      {"measurement": "EC50 (read off the curve)", "setting": "[3]", "value": "~1", "unit": "µg/mL"},
      {"measurement": "EC50 (read off the curve)", "setting": "[4]", "value": "~0.3", "unit": "µg/mL"},
      {"measurement": "EC50 (read off the curve)", "setting": "[5]", "value": "~0.3", "unit": "µg/mL"},
      {"measurement": "EC50 (read off the curve)", "setting": "[6]", "value": "~0.3", "unit": "µg/mL"},
      {"measurement": "EC50 (read off the curve)", "setting": "[7]", "value": "~0.2", "unit": "µg/mL"}
    ]},
    {"binder": "B2", "values": [
      {"measurement": "binding result", "setting": "[2]", "value": "binds"},
      {"measurement": "EC50 (read off the curve)", "setting": "[4]", "value": "~0.9", "unit": "µg/mL"},
      {"measurement": "binding result", "setting": "[5]", "value": "binds"},
      {"measurement": "binding result", "setting": "[6]", "value": "binds"},
      {"measurement": "EC50 (read off the curve)", "setting": "[7]", "value": "~0.6", "unit": "µg/mL"}
    ]},
    {"binder": "B3", "values": [
      {"measurement": "binding result", "setting": "[1]", "value": "binds"},
      {"measurement": "EC50 (read off the curve)", "setting": "[3]", "value": "~0.2", "unit": "µg/mL"}
    ]}
  ]
}
